The Kd is the equilibrium constant for the complex coming apart. A word on the koff: it is the rate constant with which the complex falls apart. Broadly, the kon is a measure of how fast the partners come together. Usually EC50 (read off the curve) stands for the concentration needed to bring the measured effect to its halfway point.

Positions count from the first letter of the chain named.

This note sets out measurements from patent publication US20240279356A1 (Xencor, published 2024).

In experiment [1] the target is T1, human MSLN antigen (human, UniProt Q13421 296-580, limits assumed).
T1 construct: Soluble antigen for BLI; also called Mesothelin; MESO
T1 sequence (Q13421 other isoform, or with tags, fused parts or gaps limits assumed): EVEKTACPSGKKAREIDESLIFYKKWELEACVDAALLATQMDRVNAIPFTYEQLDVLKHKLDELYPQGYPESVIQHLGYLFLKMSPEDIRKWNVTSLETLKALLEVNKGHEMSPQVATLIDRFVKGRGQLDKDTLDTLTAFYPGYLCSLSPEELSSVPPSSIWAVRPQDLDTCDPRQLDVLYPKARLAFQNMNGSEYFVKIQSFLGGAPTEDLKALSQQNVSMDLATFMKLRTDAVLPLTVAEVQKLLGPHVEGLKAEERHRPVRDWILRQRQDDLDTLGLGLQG
The experiment can be described thus: MSLN KD of the binding domain (Octet BLI, Example 2B(a)); quoted in Example 3B(a). An excerpt: (§1) Variants of MESO-C were engineered by introducing point substitutions into the variable heavy region (VH) and the variable light region (VL) to generate 11 VH variants and 16 VL variants (sequences for which are depicted in FIG. 18 as H1.1-H1.13 and in FIG. 19 as L1.1-L1.18). An additional 4 VL variants were generated by combining useful point substitutions (sequences for which are depicted in FIG. 19 as L1.19-L1.22). WT and variant variable heavy regions were paired with WT and variant variable light regions to generate variant variable regions (Fvs) which were produced in the context of anti-MSLN×anti-CD3 bispecific antibodies. The bispecific antibodies were screened for MSLN binding affinity using Octet®, a BioLayer Interferometry (BLI)-based method. Experimental steps for Octet® generally include the following: Immobilization (capture of ligand to a biosensor); Association (dipping of ligand-coated biosensors into wells containing the analyte); and Dissociation (returning of biosensors to well containing buffer). In an initial screening, anti-human Fc sensors were used to capture the bispecific mAbs and dipped into human MSLN antigen (one concentration to screen large library). The resulting dissociation constant of illustrative variants (KD), association rate (kₐ), dissociation rate (kd), as well as sensorgram response are depicted in FIG. 20. In further screening of favorite variants identified in the initial screen (and combination variants), bispecific mAbs were dipped into multiple concentrations of human MSLN antigen, data for which are depicted in FIG. 21 (from various screens).
(Biolayer interferometry detects binding as a change in optical thickness at a sensor tip.)

Experiment [2] has as its target T2, cyno MSLN (Macaca fascicularis (cynomolgus)).
T2 construct: soluble antigen for Octet; also called cynomolgus MSLN
In words: Octet BLI, several concentrations; lower table, column head only 'cyno MSLN (M)'.

The target in experiment [3] is T1, human MSLN antigen. In words: Octet BLI on human MSLN antigen (Example 2B(a)); KD quoted in the FIG. 35 legend.
Description: as §1

The target in experiment [4] is T1, human MSLN antigen. In words: Octet BLI; bsAb on anti-human Fc sensor, human MSLN as analyte, one concentration.
Description: as §1

The target in experiment [5] is T2, cyno MSLN. In words: Octet BLI; bsAb on anti-human Fc sensor, cyno MSLN as analyte, one concentration.
Experiment [6] concerns the target T3, MSLN on OVCAR8 (MSLN^high) and other cancer cell lines (UniProt Q13421 296-598).
T3 construct: whole, on cells; Endogenous surface MSLN; also called MSLN^high OVCAR8 cells; MSLN^low SKOV3 and HT29 cells
In words: flow cytometry on OVCAR8 cells, detected with A647-labelled anti-human Fc mAb. The method, then:
Next, the effect of MSLN binding affinity was investigated. 100,000 OVCAR8 (MSLN^high) cells were treated with the indicated concentrations of the indicated test articles. […] Further, XENP32852 and XENP32853 which differ only in CD3 binding affinity have identical binding to OVCAR8 cells confirming that avid binding is due to the MSLN binding domain.
Background: Flow cytometry measures light scatter and fluorescence of single cells or particles in a stream.

The target of experiment [7] is T1, human MSLN antigen. The experiment can be described thus: MSLN binding affinity (Octet BLI, Example 2B(a)); quoted in the RTCC example.

T3 sequence (Q13421 other isoform, or with tags, fused parts or gaps limits assumed): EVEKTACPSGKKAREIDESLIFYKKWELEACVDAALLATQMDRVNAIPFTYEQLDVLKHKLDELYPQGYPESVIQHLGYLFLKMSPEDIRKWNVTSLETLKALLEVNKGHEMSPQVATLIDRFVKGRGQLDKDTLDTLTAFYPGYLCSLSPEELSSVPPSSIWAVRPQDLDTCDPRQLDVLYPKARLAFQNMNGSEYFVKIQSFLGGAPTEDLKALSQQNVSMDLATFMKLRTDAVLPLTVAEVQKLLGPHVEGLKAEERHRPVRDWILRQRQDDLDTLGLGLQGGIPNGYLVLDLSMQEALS

B1: MESO-C[MSLN]_H1_L1.9 (Fab, V domains shown)
VH: QVQLVQSGAEVKKPGASVKVSCKASGYTFTSYWMHWVRQAPGQGLEWMGMIHPNSDNTIYYEKFQGRVTMTVDKSISTAYMELSRLRSDDTAVYYCAIIITPVVPKFDYWGQGTLVTVSS
VL: DIVMTQSPDSLAVSLGERATINCKASHDVGTSVAWYQQKPGQSPKLLIYWASTRHTGVPDRFTGSGSGTDFTLTISSLQAEDVAVYFCQQYYSYPLTFGAGTKLEIK
notes: It was tested as the Fab arm(s) of anti-MSLN x anti-CD3 bsAbs
Take B1: in the experiment with human MSLN antigen [1], the Kd stood at 3.9 nM.

B2: MESO-C[MSLN]_H1.12_L1.9 (Fab, V domains shown)
VH: B1 VH with E62Q
VL: B1 VL
notes: as for B1
As for B2, the Kd in the experiment with human MSLN antigen [1] was found to be 10.2 nM.

B3: MESO-C[MSLN]_H1.3_L1 (Fab, V domains shown)
VH: B1 VH with M50W
VL: B1 VL with Y92S
notes: as for B1
In the case of B3, in the experiment with human MSLN antigen [1], the Kd was 9.2 nM.

B4: MESO-C[MSLN]_H1_L1.5 (Fab, V domains shown)
VH: B1 VH
VL: B1 VL with S32Y, Y92S
notes: as for B1
Consider B4, for which the Kd with human MSLN antigen [1] was ~12.8 nM.

B5: XENP32552 (bispecific antibody)
heavy: QVQLVQSGAEVKKPGASVKVSCKASGYTFTSYWMHWVRQAPGQGLEWMGWIHPNSDNTIYYEKFQGRVTMTVDKSISTAYMELSRLRSDDTAVYYCAIIITPVVPKFDYWGQGTLVTVSSASTKGPSVFPLAPSSKSTSGGTAALGCLVKDYFPEPVTVSWNSGALTSGVHTFPAVLQSSGLYSLSSVVTVPSSSLGTQTYICNVNHKPSDTKVDKKVEPKSCDKTHTCPPCPAPPVAGPSVFLFPPKPKDTLMISRTPEVTCVVVDVKHEDPEVKFNWYVDGVEVHNAKTKPREEEYNSTYRVVSVLTVLHQDWLNGKEYKCKVSNKALPAPIEKTISKAKGQPREPQVYTLPPSREEMTKNQVSLTCDVSGFYPSDIAVEWESDGQPENNYKTTPPVLDSDGSFFLYSKLTVDKSRWEQGDVFSCSVMHEALHNHYTQKSLSLSPGK
scFv-Fc: not shown
light: DIVMTQSPDSLAVSLGERATINCKASHDVGTSVAWYQQKPGQSPKLLIYWASTRHTGVPDRFTGSGSGTDFTLTISSLQAEDVAVYFCQQYSSYPLTFGAGTKLEIKRTVAAPSVFIFPPSDEQLKSGTASVVCLLNNFYPREAKVQWKVDNALQSGNSQESVTEQDSKDSTYSLSSTLTLSKADYEKHKVYACEVTHQGLSSPVTKSFNRGEC
notes: 1+1 Fab-scFv-Fc
In the experiment with cyno MSLN [2], B5 returned a Kd of 10 nM. For the same molecule, the dissociation constant (Kd) in the experiment with human MSLN antigen [3] came to 9.2 nM. For the same molecule, in the experiment with human MSLN antigen [4], the equilibrium dissociation constant (Kd) came to 30 nM, the Response turned out to be 0.915, the koff worked out at 0.0147 s⁻¹ and the kon is 491000 M⁻¹ s⁻¹. In the experiment with cyno MSLN [5], this molecule showed a Kd of 32.1 nM, a Response of 0.827, a koff of 0.0148 s⁻¹ and a kon of 459000 M⁻¹ s⁻¹.

B6: XENP32853 (bispecific antibody)
heavy 1: B5 heavy with W50M
heavy 2: QVQLVQSGAEVKKPGASVKVSCKASGYTFTSYWMHWVRQAPGQGLEWMGMIHPNSDNTIYYEKFQGRVTMTVDKSISTAYMELSRLRSDDTAVYYCAIIITPVVPKFDYWGQGTLVTVSSASTKGPSVFPLAPSSKSTSGGTAALGCLVKDYFPEPVTVSWNSGALTSGVHTFPAVLQSSGLYSLSSVVTVPSSSLGTQTYICNVNHKPSNTKVDKKVEPKSCGGGGSGGGGSQAVVTQEPSLTVSPGGTVTLTCGSSTGAVTTSNYANWVQQKPGKSPRGLIGGTNKRAPGVPARFSGSLLGGKAALTISGAQPEDEADYYCALWYSNHWVFGGGTKLTVLGKPGSGKPGSGKPGSGKPGSEVQLVESGGGLVQPGGSLRLSCAASGFTFSTYAMNWVRQAPGKGLEWVGRIRSKYNNYATYYADSVKGRFTISRDDSKNTLYLQMNSLRAEDTAVYYCVRHGNFGDEYVSWFAYWGQGTLVTVSSEPKSSDKTHTCPPCPAPPVAGPSVFLFPPKPKDTLMISRTPEVTCVVVDVKHEDPEVKFNWYVDGVEVHNAKTKPREEQYNSTYRVVSVLTVLHQDWLNGKEYKCKVSNKALPAPIEKTISKAKGQPREPQVYTLPPSREQMTKNQVKLTCLVKGFYPSDIAVEWESNGQPENNYKTTPPVLDSDGSFFLYSKLTVDKSRWQQGNVFSCSVMHEALHNHYTQKSLSLSPGK
light: B5 light with S92Y
notes: 2+1 Fab2-scFv-Fc; copies: 1 + 1 + 2
Consider B6, for which the Kd with human MSLN antigen [3] amounted to 3.9 nM. In addition, the “EC50 (read off the curve)” value in experiment [6] is ~0.06 µg/mL.

B7: XENP32561 (bispecific antibody)
heavy: B5 heavy with W50M
scFv-Fc: not shown
light: B5 light with D28S
notes: 1+1 Fab-scFv-Fc
For B7, the Kd with human MSLN antigen [3] came to 0.45 nM. In addition, in the experiment with human MSLN antigen [4], the Kd was determined as 0.355 nM, the Response is 1.08, the koff was determined as 0.000215 s⁻¹ and the kon was determined as 606000 M⁻¹ s⁻¹. For the same molecule, in the experiment with cyno MSLN [5], binding was characterised by a dissociation constant (Kd) of 0.413 nM, the Response was found to be 0.976, the koff turned out to be 0.000248 s⁻¹ and the on-rate constant (kon) turned out to be 600000 M⁻¹ s⁻¹. Further, the “EC50 (read off the curve)” value in experiment [6] is ~0.2 µg/mL.

B8: XENP32567 (bispecific antibody)
heavy: B5 heavy with W50M
scFv-Fc: not shown
light: B5 light with S92Y
notes: 1+1 Fab-scFv-Fc
In turn, B8 displayed a Kd with cyno MSLN [2] of 6.7 nM. Besides, the Kd with human MSLN antigen [3] amounted to 3.9 nM. In the experiment with human MSLN antigen [4], the Kd came to 15.3 nM, the Response was 0.953, the koff was 0.00887 s⁻¹ and the kon stood at 578000 M⁻¹ s⁻¹. Also, in the experiment with cyno MSLN [5], the Kd amounted to 21.5 nM, the Response is 0.822, the koff stood at 0.013 s⁻¹ and the kon amounted to 608000 M⁻¹ s⁻¹.

B9: XENP33366 (bispecific antibody)
heavy: B5 heavy
Fab-scFv-Fc: QVQLVQSGAEVKKPGASVKVSCKASGYTFTSYWMHWVRQAPGQGLEWMGWIHPNSDNTIYYEKFQGRVTMTVDKSISTAYMELSRLRSDDTAVYYCAIIITPVVPKFDYWGQGTLVTVSSASTKGPSVFPLAPSSKSTSGGTAALGCLVKDYFPEPVTVSWNSGALTSGVHTFPAVLQSSGLYSLSSVVTVPSSSLGTQTYICNVNHKPSNTKVDKKVEPKSCGGGGSGGGGSQAVVTQEPSLTVSPGGTVTLTCGSSTGAVTTSNYANWVQQKPGKSPRGLIGGTNKRAPGVPARFSGSLLGGKAALTISGAQPEDEADYYCALWYSNHWVFGGGTKLTVLGKPGSGKPGSGKPGSGKPGSEVQLVESGGGLVQPGGSLRLSCAASGFTFSTYAMNWVRQAPGKGLEWVGRIRSKANNYATYYADSVKGRFTISRDDSKNTLYLQMNSLRAEDTAVYYCVRHGNFGDSYVSWFAYWGQGTLVTVSSGGGGSGGGGSKTHTCPPCPAPPVAGPSVFLFPPKPKDTLMISRTPEVTCVVVDVKHEDPEVKFNWYVDGVEVHNAKTKPREEQYNSTYRVVSVLTVLHQDWLNGKEYKCKVSNKALPAPIEKTISKAKGQPREPQVYTLPPSREQMTKNQVKLTCLVKGFYPSDIAVEWESNGQPENNYKTTPPVLDSDGSFFLYSKLTVDKSRWQQGNVFSCSVMHEALHNHYTQKSLSLSPGK
light: B5 light with T31Q
notes: 2+1 Fab2-scFv-Fc
B9 gave a Kd with human MSLN antigen [7] of 90.4 nM.

B10: XENP32562 (bispecific antibody)
heavy: B5 heavy with W50M
scFv-Fc: not shown
light: B5 light with G30L
notes: 1+1 Fab-scFv-Fc
With B10, the Kd with human MSLN antigen [3] was determined as 0.74 nM. In the experiment with human MSLN antigen [4], the Kd was 0.628 nM, the Response came to 1.01, the koff is 0.000409 s⁻¹ and the kon came out at 651000 M⁻¹ s⁻¹. In the experiment with cyno MSLN [5], the Kd was found to be 0.887 nM, the Response amounted to 0.9, the koff was 0.000594 s⁻¹ and the kon amounted to 669000 M⁻¹ s⁻¹. The “EC50 (read off the curve)” value in experiment [6] is ~0.2 µg/mL.
